According to US20240279845A1, “METHOD FOR PREPARING A LIBRARY OF PEPTIDES OR A PEPTIDE” (ECOLE POLYTECHNIQUE FEDERALE DE LAUSANNE (EPFL), priority 2021, published 2024):

How the values were obtained:
[1] = system: Cc1cc(=O)oc2cc(NC(=O)[C@H](CCCNC(=N)N)NC(=O)[C@@H]3CCCN3C(=O)[C@@H](NC(=O)OC(C)(C)C)C(C)C)ccc12; assay: Substrate KM for protease screen, KLK5; type: biochemical; conditions: other: KLK5
Experimental: (§1) Crude macrocyclic libraries (4 mM DMSO stocks in 384-well LDV plates were transferred into 1536-well microtiter OptiPlates via ADE. Applied buffered solutions were prepared by filtration through PTFE syringe filters (0.22 μm) and assays were initiated by addition of protease (4.41 μl/well) in appropriate buffer (see list below) supplemented with bovine serum albumin (BSA; 0.1% w/v) and dispensed using a CERTUS automated liquid handler. Plates were incubated for 10 min at ambient temperature before fluorogenic substrate in appropriate buffer (4.5 μl) was added using a CERTUS automated liquid handler. Plates were centrifugated (800 g, 2 min) and fluorescence intensity was measured using a PHERAstar plate reader (excitation 384 nm, emission 440 nm) in time increments of 150 s over 15 min. Slopes of fluorescence increase (m) were calculated with Microsoft Excel (vers. 16.56). Negative controls were prepared without macrocycle. An average of 12 negative controls was used to calculate residual activities using Equation I below: […]
(§2) where [S]0 is the initial substrate concentration and KM is the Michaelis-Menten constant^12 for the enzyme and substrate.

[2] = system: Cc1cc(=O)oc2cc(NC(=O)[C@H](CCCNC(=N)N)NC(=O)[C@H](Cc3ccccc3)NC(=O)OCc3ccccc3)ccc12; assay: Substrate KM for protease screen, PKal; type: biochemical; conditions: other: PKal
Experimental: as §1, §2

Chain of PKal (Homo sapiens) (chain, as listed by the source): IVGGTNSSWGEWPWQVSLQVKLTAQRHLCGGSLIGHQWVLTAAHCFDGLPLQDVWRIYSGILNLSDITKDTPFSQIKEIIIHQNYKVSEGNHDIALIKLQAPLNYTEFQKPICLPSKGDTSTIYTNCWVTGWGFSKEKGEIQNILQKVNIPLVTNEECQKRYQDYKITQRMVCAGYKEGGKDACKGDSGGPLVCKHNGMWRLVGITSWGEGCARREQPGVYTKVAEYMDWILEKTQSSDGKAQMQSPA

Q: KLK5 (Homo sapiens) was tested. Which Km [1] did it give?
A: 200 ± 10 µM

Q: With PKal (Homo sapiens) as the substance, how does the Km [2] read?
A: 120 ± 28 µM
